Laboratory results taken from patent US20250179195A1.
Substitutions are numbered along the chain they refer to.

B1: Fab fragment of antibody 17566 (Fab, V domains shown)
VH: QVTLKESGPVLVKPTETLTLTCTVSGFSFNNARMGVNWIRQPPGKALEWLAHIFSNDEKSYSTSLKSRLTISKDISKSQVVLTMTNMDPVDTATYYCARIVGYGSGWRLLGDYWGQGTLVTVSS
VL: AIQMTQSPSSLSASVGDRVTITCRASQGITNDLGWYQQKPGKAPKLLIYAASSLQSGVPSRFSGSGSGTDFTLTISSLQPEDFATYYCLQDYNYPWTFGQGTKVEIK
B2: Fab fragment of antibody 17497 (Fab, V domains shown)
VH: QVQLQESGPGLVKPSGTLSLTCAVSGGSISSTNWWSWVRQPPGKGLEWIGEISHRGSTNYNPSLKSRVTISVDKSKNQFSLKLSSVTAADTAVYYCARDPEMTLYYYYGMDVWGQGTTVTVSS
VL: B1 VL with A1D, Q27R, T30R, L46R, D70E, D91H, Y92N, N93S, W96L, Q100G
B3: Fab fragment of antibody 17543 (Fab, V domains shown)
VH: QVTLKESGPVLVKPTETLTLTCTVSGFSLINARMGVTWIRQPPGKALEWLAHIFSNDEKSYSTSLKSRLTISKDTSKSQVVLTMTNMDPVDTATYYCARIPGYSRGWDYYYYGMDVWGQGTMVTVSS
VL: B1 VL with A1D, T30R, L46R, S53T, D70E, D91H, Y92N, N93S

Molecular target: human FLT3 domain 1 Fc fusion protein (wild type) (human) (UniProt P36888)
Experiment: SPR (Carterra LSA); FLT3 D1-Fc captured on anti-human Ig Fc, Fab as analyte; mean ± SEM, n=4

Kd [nM] | koff [s⁻¹] | kon [M⁻¹ s⁻¹] | Binder
5.2 | 0.0046 | 890000 | B1
3.1 | 0.003 | 980000 | B2
19.3 | 0.0099 | 520000 | B3
